One protein from article PMC5529448 can be followed below.

This series concerns the target P02689. The series can be described thus: dynamic light scattering; triplicates at +25 °C; 0.6–0.9 mg/ml protein; 0.3 M NaCl, 20 mM HEPES pH 7.5; proteins stored on ice for 24 h after SEC. The settings on record: other: dynamic light scattering.

B1: human myelin protein P2 T51P (protein)
chain: MSNKFLGTWKLVSSENFDDYMKALGVGLATRKLGNLAKPTVIISKKGDIIPIRTESTFKNTEISFKLGQEFEETTADNRKTKSIVTLQRGSLNQVQRWDGKETTIKRKLVNGKMVAECKMKGVVCTRIYEKV
Regarding B1, the Monomeric (%) was found to be 98.3%.
